According to patent publication US20030113828:

Biological target: integrin αIIbβ3 (wild type) (UniProt P08514)

**Q.** How did the “adhesion dependent phosphorylation of Vav1” value turn out when Syk truncation mutant (residues 1-330) was run?
**A.** Over expression of Syk(1-330) also inhibited adhesion dependent phosphorylation of Vav1
